From the nanobody polyreactivity screen of Harvey et al. (2022)

assay: yeast display, Sf9 membrane polyspecificity reagent, FACS + sequencing; frameworks hold sequencing errors
Procedure, shortened: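 Sorting gates, low and high (top ~1%), were placed on anti-HA fluorescence to track expression and on streptavidin fluorescence to track reagent binding. A clone's polyreactivity label is taken from the gate it came out of. The reagent was 10% biotinylated, detergent-solubilized Sf9 membrane, applied for 1 hour at 4 °C to galactose-induced yeast display cells.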

Sequence	polyreactivity (PSR sort gate)
QVQLVESGGGLVQAGGSLRLSCAASGRIFYTNGMAWYRQAPGKERELVATIRSGDGRTYYADSVKGRFTISRDNAKNTVYLQMNSLKPEDTAVYYCNASRVVYRQAYLYGFDYWGQGTQVTVSS	low polyreactivity
QVQLVESGGGLVQAGGSLRLSCAASGRIFYTYAMGWYRQAPGKERELVAAISRSGVSTYYADSVKGRFTISRDTAKNTVYLQMNSLKPEDTAVYYCAARWRSGFTSGDYWGQGTQVTVSS	low polyreactivity
QVQLVESGGGLVQAGGSLRLSCAASGRIFYTYAMGWYRQAPGKERELVAAITTSGGRTYYADSVKGRFTISRDNAKNTVYLQMNSLKPEDTAVYYCNKLSSDSYNYWGQGTQVTVSS	high polyreactivity
QVQLVESGGGLVQAGGSLRLSCAASGRIFYTYAMGWYRQAPGKERELVATISRSSSTYYADSVKGRFTISRDNAKNTVYLQMNSLKPEDTAVYYCATRSASQLLDYWGQGTQVTVSS	low polyreactivity
QVQLVESGGGLVQAGGSLRLSCAASGRIFYVNAMGWYRQAPGKERELVAAIRSAGGTYYADSVKGRFTISRDNAKNTVYLEMNWLNPEDSAVYYCNADASYREYRLYLIEMDYLGQGTQVTVSS	high polyreactivity
QVQLVESGGGLVQAGGSLRLSCAASGRIFYVNAMGWYRQAPGKERELVATIRRGGDTNYADSVKGRFTISRDNAKNTVYLQMNSLKPEDTAVYYCASKAYQSSYQRYYWGQGTQVTVSS	high polyreactivity
QVQLVESGGGLVQAGGSLRLSCAASGRIFYVNGMGWYRQAPGNERELVAAIRISGGRTYYADSVKGRFTISRDYAKYTVYFQMNSLKPEDTAVYFCAKRYYYPYAGYDYWGQGTQVTVSS	high polyreactivity
QVQLVESGGGLVQAGGSLRLSCAASGRIFYVYALGWYRQAPGKERELVAAIDWNGGTTYYADSVKGRFTISRDNAKNTVYLQMNSLKPEDTAVYYCAVSLQGYNQVDYYYWGQGTQVTVSS	high polyreactivity
QVQLVESGGGLVQAGGSLRLSCAASGRIFYVYAMGWYRQAPGKERELVAGIRSGGSTNYADSVKGRFTISRDNAKNTVYLLMNSLKPEDTAVYYCAVQSYGALSPQLVYRRYDYWGQGTQVTVSS	high polyreactivity
QVQLVESGGGLVQAGGSLRLSCAASGRIFYVYAMGWYRQAPGKERELVATITYRGDTDYADSVKGRFTSSRDNAKNTVYLQMNSRKPEDTAVYYCAKDFEAGDDYFAYDYWGQGTQVTVSS	low polyreactivity
QVQLVESGGGLVQAGGSLRLSCAASGRIFYVYTMGWYRQAPGKERELVAAISWSGGSTHYADSVKGRFTIARDNAKNTVYLQMNSLKPEDTAVYYCNKGVVSRVAFEYWGQGTQVTVSS	low polyreactivity
QVQLVESGGGLVQAGGSLRLSCAASGRIFYWNAMGWYRQAPGKEREFVAAISWSGGSTYADSVKGRFTISRDNAKNTVYLQMNSLKPEDTAVYYCATRVSRSFRAYDYWGQGTQVTVSS	high polyreactivity
QVQLVESGGGLVQAGGSLRLSCAASGRIFYYNAKGWYRQAPGKERELVATISRGGSTYYADSVKGRFTISRDNAKNTVDLQMNSLKPEDTAVYYCATRVLYYQSSYDYWGQGTQVTVSS	high polyreactivity
QVQLVESGGGLVQAGGSLRLSCAASGRIFYYNAMGWYRQAPGKERELVASITWSGARTYYADSVKGRFTISRDNAKNTVYLQMNSLKPEDTAVYYCNAATSYYTYTYGYWGQGTQVTVSS	high polyreactivity
QVQLVESGGGLVQAGGSLRLSCAASGRIFYYNDMGWYRQAPGKERELVAAITWTDDGTYYADSVKGRFTISRDYAKNTVYLQMNSLKPEDTAVYYFAAETFYGFEYWGQGTQVTLSS	low polyreactivity
QVQLVESGGGLVQAGGSLRLSCAASGRIFYYNGMGWYRQAPGKERELVAAISRGGSTYYADSVKGRFTISRDNAKNTVYLQMNSLKPEDTAVYYCAARWKPPYWGRYYYWGQGTQVTVSS	high polyreactivity
QVQLVESGGGLVQAGGSLRLSCAASGRIFYYNGMGWYRQAPGKERELVAAITANGGSTYYADSVKGRFTISRDNAKHTVYLQMNSLKPEDTAVYYCAAVYQLYYSAGRGYDYWGQGTQVTVSS	high polyreactivity
QVQLVESGGGLVQAGGSLRLSCAASGRIFYYNTMGWYRQAPGKERELVARITYSGGRTYYADSVKGRFTISRDNAKNTVYLQMNSLKPEDTAVYYCNAKPRYYQTGGGYWGQGTQVTVSS	high polyreactivity
QVQLVESGGGLVQAGGSLRLSCAASGRIFYYNVMGWYRQAHGKERELVASISYSSTRTYYADSVKGRFTISRDNAKNTVYLQMNRLKQEDTAVYYCAVDTYAYRGVSYWSERTYYYWGQGTQVNVSS	low polyreactivity
QVQLVESGGGLVQAGGSLRLSCAASGRIFYYYAMGWSRQAPGKERELVAAITRRGGSTYYADSVKGRFTISRDNAKNTVYLQMNSLKPEDPADYYCAKPDRTGWLDGEYWGQGTQVTVSS	low polyreactivity
QVQLVESGGGLVQAGGSLRLSCAASGRIFYYYAMGWYRPAPGKERELVAAINRDGGRTYYADSVKGRFTISRDNAKNTVYLQMNSLKPEDTAVYYCAASYGYVYTTSLDYWGQGTQVTVSS	low polyreactivity
QVQLVESGGGLVQAGGSLRLSCAASGRIFYYYAMGWYRQAPATERELFAGINSGGNTYADSVKGRFTISRDNAKNTVYLQMNSLKPEDTAVYYCATDFYSYAGGYYHHDHWGQGTQVTVSS	high polyreactivity

Sequence	polyreactivity (PSR sort gate)
QVQLVESGGGLVQAGGSLRLSCAASGRIFYYYAMGWYRQAPGKERELVAAIRWSGGSTYYADSVKGRFTISRDNEKNTVYLQMNSLKPEDTAVYYCAADSRTNGYDYWGQGTQVTVSS	high polyreactivity
QVQLVESGGGLVQAGGSLRLSCAASGRIFYYYAMGWYRQAPGKERELVAAISSIDGTTYYADSVKGRFTISRDNAKNTVYLQMNSLKPEDTAVYYCAAEDPADQYDYWGQGTQVTVSS	high polyreactivity
QVQLVESGGGLVQAGGSLRLSCAASGRIFYYYAMGWYRQAPGKERELVAAISSIGGSTYADSVKGRFTISRDNAKNTVYLQMNSLKPEDTAVYYCAADGFKRLYTQVAHVRYDYWGQGTQVTVSS	low polyreactivity
QVQLVESGGGLVQAGGSLRLSCAASGRIFYYYAMGWYRQAPGKERELVAAISWSGGSTYYADSVKGRFTISRDNAKNTVYLQMNSLKPEDTAVYYCAAESRKYREYYYWGQGTQVTVSS	high polyreactivity
QVQLVESGGGLVQAGGSLRLSCAASGRIFYYYAMGWYRQAPGKERELVAVISRGGRTKYADSVKGRFTISRDNAKNTVYLQMNILKPEDTAVYYCAAYPSYYGDSGLRYDYWGQGTQVTVSS	high polyreactivity
QVQLVESGGGLVQAGGSLRLSCAASGRIFYYYDMGWYRQAPGKARELVAAITSAGITYYADSVKGRFTISRDNAKNTVYLQMNSLKPEDTAVYYCAVEFYDKRWPYRGGYWGQGTQVTVSS	low polyreactivity
QVQLVESGGGLVQAGGSLRLSCAASGRIFYYYTMGWYRPAPGKERELVARITGLTGRTYYADCVKGRFTISRDNGKNTVYLQMNSLKPEDTAVYYCNARYFRHYDYWGQGTQGTVSS	high polyreactivity
QVQLVESGGGLVQAGGSLRLSCAASGRIFYYYTMGWYRQAPGKEREVVAAITKGDDDTSYADSVKGRFTISRDNAKNTVYVQMNSLKPEDTAVYYCAVEIVLVPFVVGYDYWGQGTQVTVSS	low polyreactivity
QVQLVESGGGLVQAGGSLRLSCAASGRIGNTMGWYRQAPGKERELVATISSSGGSTYYADSVKGRFTISRDNAKNTVYLQMNSLKPEDTAVYYCAVEYYGYSTSGRYLSPYNYWGQGTQVTVSS	low polyreactivity
QVQLVESGGGLVQAGGSLRLSCAASGRIGPNVMGWYRQPPGKERELVARITWRGGSTYYADSVKGRFTISRDNAKNTVYLQMNSLKPEDTAVYYCNARGHGGWGTSMYYWGQGTQVTVSS	high polyreactivity
QVQLVESGGGLVQAGGSLRLSCAASGRIIAIYAMGWYRPAPGKERELVAAISWNSGRTNYADSVKGRFTISRDNAKNTVYLQMNSLKPEDTAVYYCAADGDRYLVSTSYPEYDYWGQGTQVTVTS	low polyreactivity
QVQLVESGGGLVQAGGSLRLSCAASGRIIDRNDMGWYRQAPGKERELVAAISSSGSTNYADSVKGRFTISRDNAKNTVYLQMNSLKPEHTAGYYCADRWRSVLASGTRPVSFDYWGQGTQVTVSS	low polyreactivity
QVQLVESGGGLVQAGGSLRLSCAASGRIIEHNAMGWYRQAPGKERELVAAINYSGGSTYYADSVKGRFTISRDNAKNTVYLQMNSLKPEDTAVYYCATRTGHWGQGTQVTVSS	low polyreactivity
QVQLVESGGGLVQAGGSLRLSCAASGRIIFRNAMGWYRQAPGKERELVAAISTSGGSTYYADSVKGRFTISRDNAKNTVYLQMNSLKPEDTAVYYWSKQFNSSPRRYYWGQGTQVTVSS	high polyreactivity
QVQLVESGGGLVQAGGSLRLSCAASGRIIGFNAMGWYRQAPGKEMELVASIRTTGGSTRYADSVKGRFTISRDNAKNTVYLQMNSLKREDTAVYYCAARWGKTLWQYNYWGQGTQVTVSS	high polyreactivity
QVQLVESGGGLVQAGGSLRLSCAASGRIIGKNVMGWSRQAPGKDRELVAAISNSGGSTYYADSVKGRFTISRDNAKNTVYLQMNSLKPEDTAVYYCAVDTSYYDYWGQGTQVTVSS	high polyreactivity
QVQLVESGGGLVQAGGSLRLSCAASGRIIGLYTMGWYRQAPGKERELVAAINIRGTRTYYADSVKGRFTISRDNAKNTVYLQMNSLKPEDTSVYYCARSPVVVGSFLSYDYWGQGTQVTVSS	high polyreactivity
QVQLVESGGGLVQAGGSLRLSCAASGRIIGLYTMGWYRQAPGKERELVAAINIRGTRTYYADSVKGRFTISRDNAKNTVYLQMTSLKPEDTAVYYCNAYPKSWELDYWGLGTQVTVSS	high polyreactivity
QVQLVESGGGLVQAGGSLRLSCAASGRIIGYNAMGWYRQAPGKERELVATITYGGGRTYYADSVKGRFTISRDNAKNTVYLQMNSLKPEDTAVYYCAAKHRFPIPGFGYWGQGTQVTVSS	low polyreactivity
QVQLVESGGGLVQAGGSLRLSCAASGRIIKYYTMGWYRQAPGKERELVASITGTGGSTYYADSVKGRFTISRDNAKNTVYLQMNSLKPEDTAVYYCAARLSVLGGYRGRNAWRFDHWGQGTQVTVSS	high polyreactivity
QVQLVESGGGLVQAGGSLRLSCAASGRIILGYAMGWYRQAPGKERELVARITWSGGSTYYADSVKGRFTISRDNAKNTVSLQMNSLKPEDNAVYYCAKRTYYSYPDGYWGQGTQVTVSS	high polyreactivity
